Measurements from patent publication US20230330251A1, “METHODS FOR TREATING CANCERS WITH ANTIBODY DRUG CONJUGATES (ADC) THAT BIND TO 191P4D12 PROTEINS” (AGENSYS, INC., priority 2020, published 2023).

Test system: subjects with previously treated locally advanced or metastatic urothelial cancer
Experiment: EV-301: safety, adverse events (safety analysis set, NCI-CTCAE v4.03, MedDRA)
[1] = Grade Any, N = 296 EV, 291 chemotherapy
[2] = Grade ≥3, N = 296 EV, 291 chemotherapy
[3] = MedDRA v23.0, N = 296 EV, 291 chemotherapy
[4] = No baseline PN, n = 241 EV, 233 chemotherapy
[5] = PY = 132.3 EV, 96.1 chemotherapy
[6] = any event, N = 296 EV, 291 chemotherapy

Excerpt: The Safety Analysis Set (SAF) will be used for the safety analysis. All subjects who are randomized and received study drug will be included in the SAF. The frequency of AEs and the serious AEs will be summarized by MedDRA system organ class and preferred term. In addition, summary statistics will be provided for the following safety parameters: • Laboratory values • Vital sign measurements • ECOG PS
An AE is any untoward medical occurrence in a subject, temporally associated with the use of a medicinal product, whether or not considered related to the medicinal product. An AE can therefore be any unfavorable and unintended sign (including an abnormal laboratory finding), symptom, or disease (new or exacerbated) temporally associated with the use of a medicinal product.
AEs, including abnormal clinical laboratory values, will be graded using the NCI-CTCAE guidelines (Version 4.03).
The safety analysis set (SAF), which consists of all subjects who received any amount of study drug, will be used for safety analyses.
SAF was used to perform all safety analysis. All treated subjects were analyzed according to the treatment they received.
The number and percentage of AEs by severity were also summarized. All AEs were listed.
A study drug-related TEAE is defined as any TEAE with a causal relationship of YES by the investigator. AEs of interest as classified by customized MedDRA queries and/or standard MedDRA queries were also summarized.

Q: With enfortumab vedotin as the substance, how does the “TRAE of special interest: Infusion-related reactions, %” value [1] read?
A: The value was 8.8%.

Q: What about the “TRAE of special interest: Infusion-related reactions, Local events, %” value [1] of the same substance?
A: The value was 1.0%.

Q: And the “TRAE of special interest: Infusion-related reactions, Systemic events, %” value [1]?
A: Its value is 7.8%.

Q: What about the “TRAE of special interest: Ocular disorders, %” value [1] of the same substance?
A: The value was 18.6%.

Q: What about the “TRAE of special interest: Peripheral neuropathy, %” value [1] of the same substance?
A: The value was 46.3%.

Q: And the “TRAE of special interest: Peripheral neuropathy, Motor events, %” value [1]?
A: The value was 7.4%.

Q: And the “TRAE of special interest: Peripheral neuropathy, Sensory events, %” value [1]?
A: Its value is 43.9%.

Q: And the “TRAE of special interest: Rash, %” value [1]?
A: The value was 43.9%.

Q: And the “TRAE of special interest: Severe cutaneous adverse reaction, %” value [1]?
A: Its value is 20.3%.

Q: And the “TRAE of special interest: Skin reactions, %” value [1]?
A: The value was 47.0%.

Q: And the “TRAE: Alopecia, Number of patients” value [2]?
A: Its value is 0.

Q: And the “TRAE: Anemia, Number of patients” value [2]?
A: The value was 8.

Q: What about the “TRAE: Anemia, percent” value [2] of the same substance?
A: The value was “(2.7) percent”.

Q: And the “TRAE: Any adverse event, Number of patients” value [2]?
A: Its value is 152.

Q: What about the “TRAE: Any adverse event, percent” value [2] of the same substance?
A: The value was “(51.4) percent”.

Q: And the “TRAE: Decreased appetite, Number of patients” value [2]?
A: The value was 9.

Q: And the “TRAE: Decreased appetite, percent” value [2]?
A: The value was “(3.0) percent”.

Q: And the “TRAE: Decreased neutrophil count, Number of patients” value [2]?
A: Its value is 18.

Q: And the “TRAE: Decreased neutrophil count, percent” value [2]?
A: The value was “(6.1) percent”.

Q: What about the “TRAE: Decreased white-cell count, Number of patients” value [2] of the same substance?
A: Its value is 4.

Q: What about the “TRAE: Decreased white-cell count, percent” value [2] of the same substance?
A: The value was “(1.4) percent”.

Q: What about the “TRAE: Diarrhea, Number of patients” value [2] of the same substance?
A: Its value is 10.

Q: And the “TRAE: Diarrhea, percent” value [2]?
A: The value was “(3.4) percent”.

Q: And the “TRAE: Dysgeusia, Number of patients” value [2]?
A: Its value is 0.

Q: What about the “TRAE: Fatigue, Number of patients” value [2] of the same substance?
A: The value was 19.

Q: What about the “TRAE: Fatigue, percent” value [2] of the same substance?
A: Its value is “(6.4) percent”.

Q: And the “TRAE: Febrile neutropenia, Number of patients” value [2]?
A: Its value is 2.

Q: And the “TRAE: Febrile neutropenia, percent” value [2]?
A: Its value is “(0.7) percent”.

Q: And the “TRAE: Maculopapular rash, Number of patients” value [2]?
A: The value was 22.

Q: And the “TRAE: Maculopapular rash, percent” value [2]?
A: Its value is “(7.4) percent”.

Q: What about the “TRAE: Nausea, Number of patients” value [2] of the same substance?
A: The value was 3.

Q: And the “TRAE: Nausea, percent” value [2]?
A: The value was “(1.0) percent”.

Q: What about the “TRAE: Neutropenia, Number of patients” value [2] of the same substance?
A: Its value is 14.

Q: What about the “TRAE: Neutropenia, percent” value [2] of the same substance?
A: The value was “(4.7) percent”.

Q: And the “TRAE: Peripheral sensory neuropathy, Number of patients” value [2]?
A: The value was 9.

Q: What about the “TRAE: Peripheral sensory neuropathy, percent” value [2] of the same substance?
A: Its value is “(3.0) percent”.

Q: And the “TRAE: Pruritus, Number of patients” value [2]?
A: The value was 4.

Q: What about the “TRAE: Pruritus, percent” value [2] of the same substance?
A: The value was “(1.4) percent”.

Q: What about the “TEAE with special safety interest: Any corneal disorders (SMQ), %” value [3] of the same substance?
A: Its value is “(1.0%)”.

Q: And the “TEAE with special safety interest: Any hyperglycemia (SSQ/CMQ), %” value [3]?
A: The value was “(11.8%)”.

Q: What about the “TEAE with special safety interest: Any infusion related reactions (SSQ/CMQ), %” value [3] of the same substance?
A: Its value is “(9.1%)”.

Q: What about the “TEAE with special safety interest: Any peripheral neuropathy (SMQ), %” value [3] of the same substance?
A: The value was “(50.3%)”.

Q: What about the “TEAE with special safety interest: Any rashes or severe cutaneous adverse reactions, %” value [3] of the same substance?
A: The value was “(53.7%)”.

Q: What about the “Treatment-emergent Hyperglycemia, %” value [4] of the same substance?
A: The value was “(5.8) %”.

Q: What about the “Treatment-emergent Peripheral motor neuropathy, %” value [4] of the same substance?
A: The value was “(9.1) %”.

Q: What about the “Treatment-emergent Peripheral neuropathy, %” value [4] of the same substance?
A: The value was “(50.6) %”.

Q: What about the “Treatment-emergent Peripheral sensory neuropathy, %” value [4] of the same substance?
A: Its value is “(48.5) %”.

Q: What about the “most frequent Grade 3 or greater adverse event(s): rash, hyperglycemia, decreased neutrophil count, fatigue, anemia and decreased appetite, share of patients” value (PADCEV arm) of the same substance?
A: Its value is “more than 5%”.

Q: And the “Grade ≥3 severity TEAE, E (number of events)” value [5]?
A: Its value is 617.

Q: What about the “Grade ≥3 severity TEAE, E/PY” value [5] of the same substance?
A: Its value is “(4.7) E/PY”.

Q: What about the “Grade ≥3 severity TRAE, E (number of events)” value [5] of the same substance?
A: Its value is 320.

Q: And the “Grade ≥3 severity TRAE, E/PY” value [5]?
A: The value was “(2.4) E/PY”.

Q: What about the “Overall TEAE, E (number of events)” value [5] of the same substance?
A: The value was 5051.

Q: And the “Overall TRAE, E (number of events)” value [5]?
A: Its value is 3033.

Q: And the “Serious TEAE, E (number of events)” value [5]?
A: The value was 314.

Q: And the “Serious TRAE, E (number of events)” value [5]?
A: Its value is 114.

Q: And the “TEAE Leading to death, E (number of events)” value [5]?
A: The value was 21.

Q: And the “TEAE Leading to death, E/PY” value [5]?
A: The value was “(0.2) E/PY”.

Q: And the “TEAE Leading to death, excluding disease progression, E (number of events)” value [5]?
A: The value was 11.

Q: What about the “TEAE Leading to death, excluding disease progression, E/PY” value [5] of the same substance?
A: The value was “(0.1) E/PY”.

Q: What about the “TEAE Leading to dose interruption, E (number of events)” value [5] of the same substance?
A: Its value is 536.

Q: What about the “TEAE Leading to dose interruption, E/PY” value [5] of the same substance?
A: Its value is “(4.1) E/PY”.

Q: And the “TEAE Leading to dose reduction, E (number of events)” value [5]?
A: The value was 170.

Q: What about the “TEAE Leading to dose reduction, E/PY” value [5] of the same substance?
A: Its value is “(1.3) E/PY”.

Q: And the “TEAE Leading to treatment withdrawal, E (number of events)” value [5]?
A: Its value is 66.

Q: And the “TEAE Leading to treatment withdrawal, E/PY” value [5]?
A: Its value is “(0.5) E/PY”.

Q: What about the “TRAE Leading to death, E (number of events)” value [5] of the same substance?
A: Its value is 7.

Q: And the “TRAE Leading to death, E/PY” value [5]?
A: Its value is “(0.1) E/PY”.

Q: And the “TRAE Leading to death, excluding disease progression, E (number of events)” value [5]?
A: Its value is 7.

Q: And the “TRAE Leading to death, excluding disease progression, E/PY” value [5]?
A: Its value is “(0.1) E/PY”.

Q: And the “TRAE Leading to dose interruption, E (number of events)” value [5]?
A: Its value is 384.

Q: What about the “TRAE Leading to dose interruption, E/PY” value [5] of the same substance?
A: Its value is “(2.9) E/PY”.

Q: What about the “TRAE Leading to dose reduction, E (number of events)” value [5] of the same substance?
A: The value was 165.

Q: And the “TRAE Leading to dose reduction, E/PY” value [5]?
A: The value was “(1.2) E/PY”.

Q: And the “TRAE Leading to treatment withdrawal, E (number of events)” value [5]?
A: Its value is 51.

Q: And the “TRAE Leading to treatment withdrawal, E/PY” value [5]?
A: The value was “(0.4) E/PY”.

Q: What about the “TRAE Leading to dose interruption, %” value [6] of the same substance?
A: Its value is “(51.0) %”.

Q: And the “TRAE Leading to dose reduction, %” value [6]?
A: The value was “(32.4) %”.

Q: What about the “TRAE Leading to dose withdrawal, %” value [6] of the same substance?
A: Its value is “(13.5) %”.

Q: What about the “Adverse events, regardless of relationship to treatment, that resulted in death (excluding disease progression) during the treatment period” value (in vivo) of the same substance?
A: Its value is 11 patients.

Q: And the “Investigator-assessed treatment-related adverse events that resulted in death” value (in vivo)?
A: Its value is 7 patients.

Q: What about the “Investigator-assessed treatment-related adverse events that resulted in death, %” value (in vivo) of the same substance?
A: The value was 2.4%.

Q: And the “Skin reactions and peripheral neuropathy among treatment-related adverse events of special interest” value (in vivo)?
A: The value was “most frequent”.

Q: What about the “Treatment-related adverse events of grade 3 or higher, rate after adjustment for treatment exposure” value (in vivo) of the same substance?
A: Its value is 2.4 events per patient-year.

Q: What about the “time to first onset of grade ≥2 peripheral neuropathy, median (range)” value (in vivo) of the same substance?
A: The value was 4.435 (0.36, 12.02) months.

Q: And the “treatment-related death: abnormal hepatic function” value (in vivo)?
A: The value was 1 patient.

Q: And the “treatment-related death: hyperglycemia” value (in vivo)?
A: Its value is 1 patient.

Q: What about the “treatment-related death: multiorgan dysfunction syndrome” value (in vivo) of the same substance?
A: Its value is 2 patients.

Q: What about the “treatment-related death: pelvic abscess” value (in vivo) of the same substance?
A: The value was 1 patient.

Q: What about the “treatment-related death: pneumonia” value (in vivo) of the same substance?
A: Its value is 1 patient.

Q: What about the “treatment-related death: septic shock” value (in vivo) of the same substance?
A: The value was 1 patient.

Q: What about the “Time to Onset of TRAE of special interest: Blurred vision, Median (range)” value (patients with the event) of the same substance?
A: Its value is 2.448 months.

Q: And the “Time to Onset of TRAE of special interest: Corneal disorders, Median (range)” value (patients with the event)?
A: The value was 4.337 months.

Q: And the “Time to Onset of TRAE of special interest: Dry eye, Median (range)” value (patients with the event)?
A: The value was 1.906 months.

Q: And the “Time to Onset of TRAE of special interest: Hyperglycemia, Median (range)” value (patients with the event)?
A: The value was 0.559 months.

Q: And the “Time to Onset of TRAE of special interest: Infusion-related reactions, Median (range)” value (patients with the event)?
A: Its value is 0.509 months.

Q: What about the “Time to Onset of TRAE of special interest: Peripheral neuropathy, Median (range)” value (patients with the event) of the same substance?
A: The value was 2.694 months.

Q: And the “Time to Onset of TRAE of special interest: Skin reactions, Median (range)” value (patients with the event)?
A: Its value is 0.427 months.

Q: What about the “incidence of treatment-related adverse events” value (safety population) of the same substance?
A: The value was 93.9%.
